Reference: PMC9897667, “Identification of procathepsin L (pCTS-L)–neutralizing monoclonal antibodies to treat potentially lethal sepsis” (Science Advances, 2023)

Experiments:
Details in all cases: both partners purified
[1] = target: T1, human TLR4 (ECD-His Tag, residues 1 to 631) (human, UniProt O00206 24-631); assay: SPR; OpenSPR (Nicoya); human pCTS-L immobilised on NTA sensor chip; human TLR4 or RAGE applied as analyte at various concentrations; Kd estimated with TraceDrawer
T1 construct: signal peptide in the construct; Toll-like receptor 4, human, extracellular domain, residues 1 to 631; also called Toll-like receptor 4; recombinant TLR4; source: bought: Sino Biological Inc
T1 sequence (O00206 24-631): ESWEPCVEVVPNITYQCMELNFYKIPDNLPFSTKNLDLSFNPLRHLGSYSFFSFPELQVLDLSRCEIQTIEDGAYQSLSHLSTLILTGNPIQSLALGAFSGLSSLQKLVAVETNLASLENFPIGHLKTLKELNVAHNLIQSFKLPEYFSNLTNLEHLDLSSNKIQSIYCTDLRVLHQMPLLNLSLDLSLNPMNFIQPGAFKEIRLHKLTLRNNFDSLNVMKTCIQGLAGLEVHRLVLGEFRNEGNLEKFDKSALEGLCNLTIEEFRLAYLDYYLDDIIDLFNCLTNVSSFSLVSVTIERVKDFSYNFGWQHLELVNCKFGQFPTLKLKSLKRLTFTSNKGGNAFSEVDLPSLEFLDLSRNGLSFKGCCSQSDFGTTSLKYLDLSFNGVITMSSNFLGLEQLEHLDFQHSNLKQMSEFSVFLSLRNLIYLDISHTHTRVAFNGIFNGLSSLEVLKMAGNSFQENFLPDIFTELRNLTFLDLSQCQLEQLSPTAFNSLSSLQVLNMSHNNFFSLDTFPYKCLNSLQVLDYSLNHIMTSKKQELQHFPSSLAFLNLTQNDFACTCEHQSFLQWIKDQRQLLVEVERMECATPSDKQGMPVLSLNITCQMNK

[2] = target: T2, extracellular domain of human RAGE (residues 1 to 344) (human, UniProt Q15109 23-344); assay: as above
T2 construct: signal peptide in the construct; receptor for advanced glycation end products, human, extracellular domain, residues 1 to 344; also called receptor for advanced glycation end products; recombinant RAGE; source: bought: Sino Biological Inc
T2 sequence (Q15109 23-344): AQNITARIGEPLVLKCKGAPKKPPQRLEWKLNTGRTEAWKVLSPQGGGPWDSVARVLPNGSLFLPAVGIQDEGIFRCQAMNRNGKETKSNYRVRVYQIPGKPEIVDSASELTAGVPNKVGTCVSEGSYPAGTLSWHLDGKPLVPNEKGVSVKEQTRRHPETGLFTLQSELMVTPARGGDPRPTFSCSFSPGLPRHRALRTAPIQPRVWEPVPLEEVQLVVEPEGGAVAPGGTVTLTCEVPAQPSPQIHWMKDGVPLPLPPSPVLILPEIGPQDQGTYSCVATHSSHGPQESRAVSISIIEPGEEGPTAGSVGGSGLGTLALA

[3] = target: T1, human TLR4 (ECD-His Tag, residues 1 to …); assay: SPR; OpenSPR, series of Fig. 10A; pCTS-L immobilised on NTA sensor chip; TLR4 or RAGE as analyte; reference values without mAb20 (not told whether with c-mAb preincubated or with no antibody)
[4] = target: T2, extracellular domain of human RAGE …; assay: as above
[5] = target: T1, human TLR4 (ECD-His Tag, residues 1 to …); assay: SPR; OpenSPR (Nicoya); TLR4 (residues 1 to 631) or RAGE extracellular domain (residues 1 to 344) immobilised on NTA sensor chip; pCTS-L applied as analyte at different concentrations; representative Kd
[6] = target: T2, extracellular domain of human RAGE …; assay: as above

Kd [1]: 20.2 nM
Kd [2]: 3.5 nM
Kd [3]: 20.3 ± 2.3 nM
Kd [4]: 3.1 ± 0.4 nM
Kd [5]: 64.4 nM
Kd [6]: 3 nM
B1: recombinant human procathepsin L (pCTS-L) (natural protein, UniProt P07711 18-333, looked up)
chain: TLTFDHSLEAQWTKWKAMHNRLYGMNEEGWRRAVWEKNMKMIELHNQEYREGKHSFTMAMNAFGDMTSEEFRQVMNGFQNRKPRKGKVFQEPLFYEAPRSVDWREKGYVTPVKNQGQCGSCWAFSATGALEGQMFRKTGRLISLSEQNLVDCSGPQGNEGCNGGLMDYAFQYVQDNGGLDSEESYPYEATEESCKYNPKYSVANDTGFVDIPKQEKALMKAVATVGPISVAIDAGHESFLFYKEGIYFEPDCSSEDMDHGVLVVGYGFESTESDNNKYWLVKNSWGEEWGMGGYVKMAKDRRNHCGIASAASYPTV
notes: procathepsin L (pCTS-L), human, recombinant; A HEK293-made pCTS-L is named only for stimulating PBMCs; also called proCTS-L; human pCTS-L; source: recombinant, highly purified
